The values that follow come from patent US20250215083A1 (JIANGSU HENGRUI PHARMACEUTICALS, published 2025).

No end group written: not given here.

In experiment [1] the target is T1, human CCR8 (human, UniProt P51685 1-355).
T1 construct: on CHOK1-human CCR8 cells
Kind of experiment: FACS, CHOK1-human CCR8 cells. An excerpt: (§1) To determine whether the GPRC5D/CD3 bispecific antibodies of the present disclosure cross-bind to the GPCRA and GPCRB family members, a flow cytometry assay was used in this test example to measure the capacity of the GPRC5D/CD3 bispecific antibodies to bind to CHOK1-human CCR8 cells expressing CCR8 (the GPCR A family) (constructed with reference to Example 2) and CHOK1-human GIPR cells expressing human GIPR (the GPCR B family) (constructed with reference to Example 2). The specific procedure was as follows: The cells described above were cultured in DMEF/12K culture medium containing 10% FBS, incubated in a 37° C., 5% CO₂ incubator for 2 days, and added to a cell plate at 1×10⁵ cells/well. The plate was centrifuged at 300 g for 5 min and washed once with 1% BSA. The antibodies were serially diluted to 8 concentrations and added to the cell plate at 100 μL/well. The plate was incubated at 4° C. for 1 h and washed once with 1% BSA. […] The plate was washed three times with 1% BSA, PBS was added at 100 μL/well, and plate reading was performed.
(Flow cytometry measures light scatter and fluorescence of single cells or particles in a stream.)

For experiment [2], the target named is T2, N-terminal peptide of human GPRC5D (human, biotinylated; made with and without intramolecular disulfide bonds).
T2 construct: synthesized by GenScript; captured on streptavidin; also called amino-terminal peptide
T2 peptide: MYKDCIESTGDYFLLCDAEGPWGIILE
Kind of experiment: ELISA, biotinylated peptide on streptavidin. The source says:
(§2) To determine the epitope of GPRC5D to which the GPRC5D/CD3 bispecific antibodies of the present disclosure bind, 4 extracellular domain peptides of human GPRC5D were synthesized, including an amino-terminal peptide (N-terminal peptide), an E2 peptide, an E3 peptide, and an E4 peptide (synthesized by GenScript). The peptides were biotinylated and made into two forms: one lacked intramolecular disulfide bonds and the other included intramolecular disulfide bonds. An Elisa plate (Corning 3590) was coated with streptavidin (sigma, SA101), left to stand at 37° C. for 2 h, and then washed. The non-specific binding sites were blocked with PBS containing 5% skim milk, and the plate was left to stand at 37° C. for 2 h and then washed. The peptides, diluted in PBS containing 1% BSA, were added at 100 μL/well, and the plate was left to stand at 37° C. for 1 h and then washed. Subsequently, the GPRC5D/CD3 antibodies, diluted in PBS containing 1% BSA to 0.003 nM-300 nM, were added at 100 μL/well, and the plate was left to stand at 37° C. for 1 h and then washed. […] TMB (KPL, 5120-0077) was added at 100 μL/well. After 5 min of color development, 1 M H₂SO₄ was added to stop the reaction, and the OD₄₅₀ was measured.

Experiment [3] has as its target human GPRC5D (human, UniProt Q9NZD1 1-345). Kind of experiment: cell-based or functional assay.
Experiment [4] deals with T3, human GIPR (human, UniProt P48546 22-466).
T3 construct: on CHOK1-human GIPR cells
T3 sequence: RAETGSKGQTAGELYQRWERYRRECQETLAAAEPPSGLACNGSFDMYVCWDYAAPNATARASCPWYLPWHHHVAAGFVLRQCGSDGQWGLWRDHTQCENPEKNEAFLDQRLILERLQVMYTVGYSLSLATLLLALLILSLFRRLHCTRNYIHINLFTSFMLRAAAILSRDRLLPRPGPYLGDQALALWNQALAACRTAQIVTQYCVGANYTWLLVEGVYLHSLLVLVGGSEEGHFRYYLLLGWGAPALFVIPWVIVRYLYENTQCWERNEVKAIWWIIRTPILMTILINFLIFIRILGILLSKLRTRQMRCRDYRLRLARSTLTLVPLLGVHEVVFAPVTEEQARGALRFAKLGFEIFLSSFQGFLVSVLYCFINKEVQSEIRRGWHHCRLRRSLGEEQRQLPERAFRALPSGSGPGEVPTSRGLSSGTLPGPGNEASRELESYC
Nature of the experiment: FACS, CHOK1-human GIPR cells.
From the text: as §1

Experiment [5] addresses T4, E2 peptide of human GPRC5D (human, also: biotinylated, site not given here, made with and without intramolecular disulfide bonds).
T4 peptide: NQQTAPVRYC
Nature of the experiment: peptide ELISA; note: - indicates no detectable binding.
From the text: as §2

The target in experiment [6] is T5, E4 peptide of human GPRC5D (human, also: biotinylated, site not given here, made with and without intramolecular disulfide bonds).
T5 peptide: RGNPQFQRQPQWDDC
The description is as above.
From the text: as §2

Experiment [7] deals with T6, E3 peptide of human GPRC5D (human, biotinylated; made with and without intramolecular disulfide bonds).
T6 peptide: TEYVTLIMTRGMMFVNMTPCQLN
The description is as above.
From the text: as §2

The term EC50 denotes the concentration at which the effect is half-maximal. A lower EC50 goes with a more potent agent.

B1: F4-0G4S-1 (bispecific antibody)
heavy 1: not shown
light 1: not shown
heavy 2: EVQLVQSGAEVKKPGASVKVSCKVSGYTFTDYPIHWMRQAPGQGLEWMGYVFPRDGSTKYNEKFRVRVTWTADKSTSTVYMELSSLRSEDTAVYYCSRELTAYWGQGTTVTVSSASTKGPSVFPLAPSSKSTSGGTAALGCLVKDYFPEPVTVSWNSGALTSGVHTFPAVLQSSGLYSLSSVVTVPSSSLGTQTYICNVNHKPSNTKVDKKVEPKSCDKTHTCPPCPAPEAAGGPSVFLFPPKPKDTLMISRTPEVTCVVVDVSHEDPEVKFNWYVDGVEVHNAKTKPREEQYNSTYRVVSVLTVLHQDWLNGKEYKCKVSNKALPAPIEKTISKAKGQPREPQVCTLPPSRDELTKNQVSLSCAVKGFYPSDIAVEWESNGQPENNYKTTPPVLDSDGSFFLVSKLTVDKSRWQQGNVFSCSVMHEALHNHYTQKSLSLSPGK
light 2: DVVLTQSPLSLPVTLGQPASISCKSSQSLLHSSGKTYLNWLLQRPGQSPRRLIYLVSKLDSGVPDRFSGSGSGTDFTLKISRVEAEDVGVYYCAQGTHFPRTFGGGTKVEIKRTVAAPSVFIFPPSDEQLKSGTASVVCLLNNFYPREAKVQWKVDNALQSGNSQESVTEQDSKDSTYSLSSTLTLSKADYEKHKVYACEVTHQGLSSPVTKSFNRGEC
notes: formula 4-0G4S
With B1, the binding result is listed as “no binding” in experiment [1]; “no binding” in experiment [4]; “no binding (tested: 0.003 nM-300 nM)” in experiment [5]; “no binding (tested: 0.003 nM-300 nM)” in experiment [6]; “no binding (tested: 0.003 nM-300 nM)” in experiment [7]. Further, a half-maximal response in experiment [2] (EC50) required 0.597 nM. Also, the “EC50 ratio (relative to JNJ-64407564), cytotoxic activity against NCI-H929” value in experiment [3] is 0.09. The “Lysis rate %, cytotoxic activity against NCI-H929” value in experiment [3] was found to be 136%.
